Data from patent publication US20120189666A1, “PHARMACEUTICAL FORMULATIONS CONTAINING MICROPARTICLES OR NANOPARTICLES OF A DELIVERY AGENT” (priority 2004, published 2012).
Where “and” joins values, the source holds several entries; their conditions need not be identical. Identical values can stand only once. Like-named read-outs stand apart in the source and are kept apart here.

How the values were obtained:
[1] = Estimates of bioavailability (absolute, portal, relative to subcutaneous); settings: rat model
Text: (§1) This value was assumed to be constant in the estimates of absolute bioavailability.
(§2) The portal bioavailability provides an estimate of drug absorption from oral delivery. […] This value is used to estimate bioavailability relative to subcutaneous.

[2] = Insulin and 4-CNAB stability in simulated gastric fluid, HPLC; settings: for Insulin % of theoretical: SGF
Description: The SGF was prepared with and without pepsin, a gastric enzyme. SGF pH 1.2 was prepared as per the USP NF 26 guidelines. 2 g sodium chloride and 3.2 g of pepsin were weighed and added to a suitable container, and deionized water was added to reach one liter in volume. If necessary, the pH was adjusted to 1.2 by addition of concentrated HCl or NaOH. A second SGF solution omitting the pepsin was also prepared.
Four 50 ml samples of SGF (two with pepsin and two without) were placed into a jacketed vessel connected to a circulating water bath set at 37° C. The solutions were stirred with magnetic stir bars for ten minutes to allow the solutions to reach 37° C. and reach thermal equilibrium.
The term “% of theoretical” as used herein, means the percent of the concentration (mg/mL) of withdrawn solution at the time-point the sample was taken as compared to the theoretical concentration (mg/mL) of the measuring component for experiment. The standard of deviation for the HPLC analysis is ±5%.

[3] = Insulin from subcutaneous (SC) administration; settings: insulin dose 0.05 mg/kg
Text: as §1, §2

[4] = for AUC0->∞ / C0: individual animals
Text: as §1

[5] = Stability of insulin in simulated intestinal fluid, HPLC
Description: The SIF solutions were prepared with and without pancreatic enzyme. SIF pH 7.5 was prepared as per the USP NF 26 guidelines. SIF was prepared by addition of 6.8 g monobasic potassium phosphate and 10 g of pancreatin into a suitable vessel, and deionized water was added to reach a total volume of one liter. If necessary, the pH was adjusted to 7.5 by addition of 0.2 N sodium hydroxide. A second SIF solution omitting the pancreatin, an intestinal enzyme, was also prepared.
Four 50 ml samples of SIF (two with pancreatin and two without) were placed into a jacketed vessel connected to a circulating water bath set at 37° C. The solutions were stirred with magnetic stir bars for ten minutes to allow the solutions to reach 37° C. and reach thermal equilibrium.

[6] = Text: as §1, §2

## Insulin: Recombinant human zinc insulin
[1]
  absolute bioavailability from SC: approximately 56%
[2]; SGF containing pepsin, first sampling point
  insulin degraded: 97%
[2]; SGF containing pepsin, first sampling point (0 minutes), 37° C.
  insulin remained: 3.0%
[2]; SGF without pepsin
  time insulin is stable: ≥ 2 h
[2]; insulin with 4-CNAB and enzymes (pepsin), 37° C., 0 minutes
  Insulin % of theoretical: 3.0%
[2]; insulin with 4-CNAB and no enzymes, 24 h
  Insulin % of theoretical: 0%
[2]; insulin without 4-CNAB and with enzymes (pepsin), 37° C., 0 minutes
  Insulin % of theoretical: 3.0%
[2]; insulin without 4-CNAB and without enzymes, 24 h
  Insulin % of theoretical: 0%
[3]; per study, 0.05 mg/kg
  Tmax: 30 min
[3]; time 0, study mean, 0.05 mg/kg
  Glucose: 83 mg/dL and 73 mg/dL and 60 mg/dL and 68 mg/dL and 65 mg/dL and 70 mg/dL
[3]; time 15, study mean, 0.05 mg/kg
  Glucose: 66 mg/dL and 42 mg/dL and 40 mg/dL and 45 mg/dL and 59 mg/dL
[3]; time 30, study mean, 0.05 mg/kg
  Glucose: 60 mg/dL and 59 mg/dL and 38 mg/dL and 39 mg/dL and 64 mg/dL
[3]; time 45, study mean, 0.05 mg/kg
  Glucose: 61 mg/dL and 64 mg/dL and 42 mg/dL and 36 mg/dL and 40 mg/dL and 69 mg/dL
[3]; time 180, study mean
  Insulin: 8.30 uU/ml
[4]; IV, all doses (2.5, 8, 9 μg/kg)
  C0->∞/Dose, Average: 0.0053 kg/mL
[4]; IV, dose 8 μg/kg
  AUC0->∞: 99.35 ng·min/mL and 99.32 ng·min/mL and 103.4 ng·min/mL
  C0: 50.67 ng/mL and 52.64 ng/mL and 49.63 ng/mL
[4]; IV, dose 8 μg/kg, n = 3
  AUC0->∞, X ± SD: 100.7 ± 2.4 ng·min/mL
  AUC0->∞/Dose, X ± SD: 0.0126 ± 0.0003 kg·min/mL
  Vd, X ± SD: 0.157 ± 0.005 L/kg
[4]; IV, dose 9 μg/kg
  AUC0->∞: 99.55 ng·min/mL and 75.67 ng·min/mL and 122.89 ng·min/mL
  C0: 46.79 ng/mL and 36.32 ng/mL and 55.30 ng/mL
[4]; IV, dose 9 μg/kg, n = 3
  AUC0->∞, X ± SD: 99.4 ± 23.6 ng·min/mL
  AUC0->∞/Dose, X ± SD: 0.0110 ± 0.0026 kg·min/mL
  C0, X ± SD: 46.1 ± 9.5 ng/mL
  Vd, X ± SD: 0.201 ± 0.043 L/kg
  kel, X ± SD: 0.47 ± 0.02 min⁻¹
[4]; IV, dose […], n = 5
  AUC0->∞/Dose, X ± SD: 0.0062 ± 0.0011 kg·min/mL
  Vd, X ± SD: 0.219 ± 0.068 L/kg
[4]; intravenous dosing
  average insulin AUC0→∞/Dose: 0.0093 kg·min/mL
[5]; SIF in presence of the enzyme (pancreatin)
  stability of insulin: degrades
[5]; SIF without pancreatin
  stability of insulin: stable
[5]; SIF, insulin with 4-CNAB and enzymes (pancreatin), 6 minutes
  Insulin % of theoretical: 5.4%
[6]; individual animals
  FPE (fH): 0.18
[6]; portal administration, n = 5
  AUC-IP, Average: 9.65
[6]; rat model, from intraportal administration
  maximum absolute bioavailability from oral delivery (100% GI absorption into the portal vein): approximately 60%
[6]; systemic administration, n = 5
  AUC-JV, Average: 15.53
